Consider 4 molecules from US9371519B2, “Complex type sugar chain hydrolase” (National Institute of Advanced Industrial Science and …, priority 2011, dated 2016).

The nature of the data set: Detection of transglycosidase activity (HPLC, MS of transglycosylation product). To be noted: donor 2 mM NGA2-Asn-Fmoc, acceptor 50 mM p-nitrophenylglucose, pH 6.0, 30° C. Format: biochemical. On the procedure:
The transglycosidase activity of Endo-Om was detected by incubating the reaction solution containing a biantennary complex type sugar chain as the substrate, acceptor molecules (p-nitrophenylglucose), and an Endo-Om partially purified enzyme solution at 30° C. for 3 hours, and then subjecting it to HPLC after the completion of the reaction; a new peak different from the hydrolysate was detected, and was identified by MS analysis to be a transglycosylation product including an acceptor molecule to which a biantennary complex type sugar chain is added (FIG. 7).
The transglycosidase activity of Endo-Cp was detected by incubating the reaction solution containing a biantennary complex type sugar chain as the substrate, acceptor molecules (p-nitrophenylglucose), and an Endo-Cp partially purified enzyme solution at 30° C. for 3 hours, and then subjecting it to HPLC after the completion of the reaction; a new peak different from the hydrolysate was detected, and was identified by MS analysis to be a transglycosylation product including an acceptor molecule to which a biantennary complex type sugar chain is added (FIG. 11).
The transglycosidase activity of Endo-Pa was detected by incubating the reaction solution containing a biantennary complex type sugar chain as the substrate, acceptor molecules (p-nitrophenylglucose), and an Endo-Pa partially purified enzyme solution at 30° C. for 16 hours, and then subjecting it to HPLC after the completion of the reaction; a new peak different from the hydrolysate was detected, and was identified by MS analysis to be a transglycosylation product including an acceptor molecule to which a biantennary complex type sugar chain is added (FIG. 15).
The transglycosidase activity of Endo-Om was detected as follows. The reaction solution containing a sodium acetate buffer at a final concentration of 100 mM (pH 6.0), 2 mM NGA2-Asn-Fmoc, 50 mM acceptor molecule (p-nitrophenylglucose), and an Endo-Om purified enzyme solution (total volume: 10 μl) was incubated at 30° C. for 3 hours, and heated at 95° C. for 5 minutes to stop the enzyme reaction. The total amount of the reaction solution was subjected to HPLC by the method described in Example 4, and detection was carried out using a UV detector (274 nm). In addition, the peak corresponding to a transglycosylation product was collected, freeze-dried, and then redissolved in Milli-Q water and subjected to mass spectrometry using MALDI-QIT-TOFMS (AXIMA-QIT, Shimadzu Co., Ltd.), thereby identifying the transglycosylation product.
The transglycosidase activity of Endo-Cp was detected as follows. […]
The transglycosidase activity of Endo-Pa was detected as follows. […]

“Also recorded” adds a separate entry of the source.

B1: Endo-Zr: endo-β-N-acetylglucosaminidase from Zygosaccharomyces rouxii ATCC2623, amino acid sequence SEQ ID NO. 13, 639 amino acids (protein, listed as Zygosaccharomyces rouxii)
chain: MKRINQVPGKPEITSLYFDDLNSLQRWFDKGFMDSRDLSNVPKERYSNYVKFEKDSIITIPNLSARKTEIIVCHDFKGGYQSGHDLYPNGQYGTESCKPYSLRYPEIVDKFVYFSHHCVTIPPSPWTNYLHRHSIPVLGTLILEHYPHNGELFKKNAKGEFLYVKYLVELCRKFHFEGWLINFETVFGNNSKQVIPFLRELTARVECEIYGGSVIWYDAFTTFSNKPSHQNEVNLFNYDAYENSSQFMTNYMWDSHNVGNSLRNVGALGMHSHVALGVDVWGRNMQVCRGGFESNIAIYYAKRFGTNAVIFAPGWTYENFGEDQFYEKDDIFWGNIKSTLQLDSYSDSQLSSWFVSESKKTRYFTTFFSTGSGNFFNLNGRRISNDNWVQLGLSTPFPVNSHSYLSFKDSFVGGSCLALPLSPMENGKLHLFRFEQFIKDQQKTSDSEIRVKLSYKSLGALPPVKLVIKCFVIRRGKRSKTILKVDDVSLVLPLSHSACQTAQGSTKWAVVEQIVPLPSLESRFLEEYYVEDAHLEWTMDNNHDEWLMVPERTEDLDCKLLIGSLCLEIGPHEDNNKRQIVRNGPQLSWQDNESSFMWLKLQDGKLDSVLFTPTTKVNGKQPTILECGRNGTLKFVVKK
For B1, the Transglycosidase activity result (16 hours) is “not detected; also recorded: transglycosidase activity was not confirmed”.

B2: Endo-Om: endo-β-N-acetylglucosaminidase from methylotrophic yeast Ogataea minuta IFO10746, amino acid sequence SEQ ID NO. 1, 772 amino acids (protein, listed as Ogataea minuta)
chain: MAQSQLLGGAVRPVFFDKLEELRRWHTQSANLSRESELDSLNVATEPFSSYERAQTGSGSRSSEPVPGDKEDPPIKLMVCHDFKGGYQDYEDAQPLGYFPHPTGSRYFLQYPQLIDQFVYFSHHRVTVPPVNWINFCHRNGIKCFGTVIFEGNASKDFEELDRLVSRDEKGDFVFVDALIKLAAHYGFDGYLLNIETTFSNTKIAADLEPFAEQLKSGLHCLDSKNELIWYDSYVFPANKVSYTNGVTESNYNFFSLSDAFFSNYWWNIKNLQENIKNVGVLGVQKKIYVGYDVWGRGTLVGKGGFDSSLACKMIAKFKSNVALFAPAWTYESLGPKDFNQNDARFWIGLFENESSISSTVPPHSSAVYKINESSFIFYTNFSSGEGNRFFSKGSEVYRKNWVNGSLQFDLPIDLHRKDKNGLQWALDKSDAFHGGACLEIKYSEIKDENGYQIFNNQMVSDFTLFNFTKECHFPTVNVKVTYKLNHKTKSTFKIKIKYIIERRFRSVQTVRTGYLTIPLLSTSGKWFTVEESFQINLQTSHEYIVLESAHVTYDEDRSADSFFRSYIVEDSAITSVIDNEEYEKLINSEIYNDDEDEDWILVPSDVSISSSESQSNDSKTQYLGRKLFGNKSTPKTRTLEGTAPLLRIGEFAIISANNYPSSNFLAVTSVKSIESSRLEGDSLVLLNWQVGEGHQKGVCYYIIYVNGAVVGLSVAPKFIYQDTELASENSASARSNYKKSGLGSSSDRKSKVRVDSVDKLGNVFTGSEVWV
For the molecule B2, the Transglycosidase activity entry (3 hours) is “has activity for transferring the cleaved sugar chain to any acceptor molecule; also recorded: significant transglycosidase activity was confirmed”.

B3: Endo-Cp: endo-β-N-acetylglucosaminidase from Candida parapolymorpha DL-1 ATCC26012, amino acid sequence SEQ ID NO. 5, 745 amino acids (protein, listed as Candida parapolymorpha)
chain: MPRNTAKHSSLPQTNLPLSSLESSFFDSLDELANWERRIHEKSFELDELNKPTEKLAHYTRARQQSTSEDVKLLVCHDLKGGYQVNEDEDPLGYFPHPDGQHYFLQYPQLVDKFVYFSHHRVSIPPVSWINVCHRNAIKCLGTVIFEGNTYRDFEEADKLLTKQDGEYVFVRCLVALVEYFQFDGYLFNIETRFSNTRIASLLEPFLEQLRAELHVRNPSTELIWYDSYIYPENRVLYKNGVTEANYNFFSCCDSFFTNYWWNVKHLQDNIKNVGVLGSRLKVYAGYDVWGRGTMIGKGGYDSALACQMIKKYRSNVALFAPAWTYEYLARKDFTQNDTRFWIGLFDGESSMATTFKPYSSPLYKINDSNFVFYTNFGSGEGCAFYECGEKVYRDNWVNGSLQMEIPYAIHTRNKNGIQWTLSKEDSFHGGSCVEIKYNEVVDDKGYQVFNNQTINSFSLFSFVQDCSFPTVNVKLTYKLNHKTKSFFKLKIGYYIERRYRTVQKVRSGCLVVPLLSTNDQWFTIEEPFHVSLQNSHEFIVLDSATIFYEETEDPFMRAHVVEDQSTSSVIDNEEYEKLMNSEIYFDDEDEDWILVPSDISMESTDNGGRENHTWKVISNQIRKKHPKSHPSTSPVLKLGELAIINANDYPSDSFFKLMPVNSIDVRRWEGKILLIWKTNQDSVLYHLIFVDDVFQGISLVSKFVFEDQAVDEKSFKTKSGGSTKVRIDTVNRLGILVKGTDM
B3: where the note is “3 hours”, the Transglycosidase activity entry is listed as “significant transglycosidase activity was confirmed; also recorded: has activity for transferring the cleaved sugar chain to any acceptor molecule”.

B4: Endo-Pa: endo-β-N-acetylglucosaminidase from Pichia anomala ATCC36904, amino acid sequence SEQ ID NO. 9, 656 amino acids (protein, listed as Pichia anomala)
chain: MQHDHAAIKFEEDSISSQRFSSLDEVEKWYNTKNRSPLDDLRIPRESLSHYNRFRDNNDEIKVLVCHDFKGNYQEGEDENPLGYFPHSSGQHYFIQFPSLVDLFIFFSHYKIAVPPVSWINSLHRQGIPVLGTLIFEGTDVSESDKLLEKNENGDFKYLEILCELVRHYGFDGWLVNMESHFSSVAKAQDLLLFDEALRSTLHLKVPGSKLIWYDSLITQKNRVFYQNAVNEWNYDHFSTSDLFFTNYWWNEEDLKRNILNIGLQGVKQKLFVGVDIWGRGSRIGNGGFESGLAINYLKRYSTNVALFAPAWTYENFEEDQFLIKDRKFWIGDQTSDETGGSVATYVSHYTTPVYVKDQNVKFYTNFSVGEGTKYRVFAHTVFKNNWVNGNLQLPTPIIDNEKRIDIYYKESFNGGSSLKVTQRNSILNDGKSNILQLFSFKNDIHSNNLNVSVSFKYLSEIPLNSTFQLEIKFYIERRYRSVTRVRDGTFKLPLAFSNKNWKYIETSFALPRLQIREHFVLEGLQIRWVDNVDELSSSIGTSGDFTESWIIVPQNSDPNAVYELLIGDLLVEGIKTANGNIDAVTKLSRKITLDSRSILATWKDDTEVLYWIIYVNAKFLGIAHKSLWRVQRGDKLRVDVFTRSGKLVKGEDIFI
In the case of B4, where the note is “16 hours”, the Transglycosidase activity result is on record as “significant transglycosidase activity was confirmed; also recorded: has activity for transferring the cleaved sugar chain to any acceptor molecule”.
